Results as given in patent US20120121591A1 (priority 2009, published 2012).
Like-named read-outs stand apart in the source and are kept apart here. No end group written: not given here.

B1: Bivalent Fc-L10-ShK[1-35] homodimer (Fc fusion)
chain: GGGGSGGGGSRSCIDTIPKSRCTAFQCKHSMKYRLSFCRKTCGTC
modifications: not fully specified (N-terminus); ends and bridges not checked; also: homodimer via Fc
B2: Bivalent Fc-L10-ShK[2-35] homodimer (Fc fusion)
chain: GGGGSGGGGSSCIDTIPKSRCTAFQCKHSMKYRLSFCRKTCGTC
modifications: not fully specified (N-terminus); ends and bridges not checked; also: homodimer via Fc

What was measured:
human Kv1.3 [1] = target: T1, human Kv1.3 (Homo sapiens, UniProt P22001); experiment: cell-based or functional assay
T1 sequence (P22001 whole entry): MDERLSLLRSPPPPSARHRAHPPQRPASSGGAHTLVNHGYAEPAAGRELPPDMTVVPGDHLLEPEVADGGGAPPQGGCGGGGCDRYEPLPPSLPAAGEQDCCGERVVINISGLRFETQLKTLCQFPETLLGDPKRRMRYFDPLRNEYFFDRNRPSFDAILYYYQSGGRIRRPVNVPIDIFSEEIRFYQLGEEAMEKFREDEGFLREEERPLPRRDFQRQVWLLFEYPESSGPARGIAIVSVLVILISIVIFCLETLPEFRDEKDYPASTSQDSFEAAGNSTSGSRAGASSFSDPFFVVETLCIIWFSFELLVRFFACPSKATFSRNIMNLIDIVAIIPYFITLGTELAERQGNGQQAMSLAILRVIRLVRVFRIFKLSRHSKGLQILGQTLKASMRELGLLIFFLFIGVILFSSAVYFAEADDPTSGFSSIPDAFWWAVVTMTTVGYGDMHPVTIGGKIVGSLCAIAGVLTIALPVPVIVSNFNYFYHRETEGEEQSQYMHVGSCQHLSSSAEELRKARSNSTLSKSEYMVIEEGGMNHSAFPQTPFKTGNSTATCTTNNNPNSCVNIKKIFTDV

human Kv1.1 [2] = target: T2, human Kv1.1 (Homo sapiens, UniProt Q09470); experiment: cell-based or functional assay
T2 sequence (Q09470 whole entry): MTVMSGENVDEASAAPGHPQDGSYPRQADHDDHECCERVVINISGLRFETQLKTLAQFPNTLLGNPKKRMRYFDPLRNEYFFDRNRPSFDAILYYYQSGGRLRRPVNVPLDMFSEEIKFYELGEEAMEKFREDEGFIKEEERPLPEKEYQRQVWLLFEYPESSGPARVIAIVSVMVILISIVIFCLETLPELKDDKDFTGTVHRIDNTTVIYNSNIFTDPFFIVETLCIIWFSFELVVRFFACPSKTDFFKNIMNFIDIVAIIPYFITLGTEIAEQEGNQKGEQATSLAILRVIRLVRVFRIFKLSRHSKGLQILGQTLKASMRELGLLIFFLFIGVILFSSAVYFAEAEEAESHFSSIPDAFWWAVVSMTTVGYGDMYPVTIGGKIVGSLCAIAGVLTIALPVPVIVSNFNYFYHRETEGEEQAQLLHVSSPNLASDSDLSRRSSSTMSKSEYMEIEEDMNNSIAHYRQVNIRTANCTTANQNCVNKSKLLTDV

human Kv1.3 [3] = target: T1, human Kv1.3; experiment: cell-based or functional assay; remark: listed apart in the source
human Kv1.1 [4] = target: T2, human Kv1.1; experiment: cell-based or functional assay; remark: listed apart in the source
[5] = test system: IL-2 secretion from T cells in human whole blood; type: cell-based; conditions: read-out: WB (IL-2) IC50 (nM, Avg)
[6] = test system: IFN-g secretion from T cells in human whole blood; type: cell-based
hKv1.3 = hKv1.3 (Homo sapiens, UniProt P22001); experiment: cell-based; type: cell-based; conditions: Kv1.3 (IWQ) IC50 (nM, Avg)
Chain of hKv1.3 (P22001 whole entry): as the sequence (P22001 whole entry) above

[7] = read-out: WB (IFNg) IC50 (nM, Avg)
[8] = read-out: WB (IFNg) IC5- (nM, Avg)

Row | Molecule | Kv1.3 (IWQ) IC50 (human Kv1.3 [1]) [nM] | WB (IFNg) IC50 (human Kv1.3 [1]) [nM] | WB (IL-2) IC50 (human Kv1.3 [1]) [nM] | further results
1 | [1-Nal2]ShK (peptide) | 0.25 | 0.258 | 0.223 | –
2 | [1-Nal20]ShK (peptide) | 2.11 | 100 | 100 | –
3 | [1-Nal14]ShK (peptide) | – | 0.11 | 0.089 | –
4 | [1-Nal5]ShK (peptide) | – | 31.9 | 70.4 | –
5 | FcLoop(ShK).L25.Fc (Fc fusion) | – | – | – | In vitro whole blood assay (inhibition of IL-2) IC50 (human Kv1.3 [1]): 1.91 nM
6 | [1-Nal11]ShK (peptide) | 0.922 | 1.65 | 1.14 | –
7 | [1-Nal34]ShK (peptide) | 0.077 | 0.063 | 0.018 | –
8 | [1-Nal15]ShK (peptide) | 0.072 | 0.291 | 0.184 | Kv1.1 (IWQ) IC50 (human Kv1.1 [2]): 0.009 nM
9 | [Nle21]ShK (peptide) | 0.04 | 0.303 | 0.153 | Kv1.1 (IWQ) IC50 (human Kv1.1 [2]): 0.015 nM
10 | [1-Nal4]ShK (peptide) | 0.15 | 0.317 | 0.274 | –
11 | FcLoopShk/FcLoopShk (bivalent Fc) (Fc fusion) | – | – | – | In vitro whole blood assay (inhibition of IL-2) IC50 (human Kv1.3 [1]): 2 nM
12 | HmK (peptide) | 0.9 | 1.2 | 0.85 | Kv1.1 (IWQ) IC50 (human Kv1.1 [2]): 0.015 nM
13 | [1-Nal18]ShK (peptide) | 0.471 | 0.375 | 0.419 | –
14 | [1-Nal1]ShK (peptide) | 0.225 | 0.247 | 0.222 | Kv1.1 (IWQ) IC50 (human Kv1.1 [2]): 0.005 nM
15 | [1-Nal10]ShK (peptide) | 0.206 | 0.255 | 0.205 | –
16 | Monovalent Fc/Fc-L10-ShK[2-35] heterodimer (Fc fusion) | – | – | – | WB (IFNg) IC50 (human Kv1.3 [3]): 5.2 nM; WB (IL-2) IC50 (human Kv1.3 [3]): 2.15 nM
17 | [1-Nal16]ShK (peptide) | 0.699 | 9.55 | 28.9 | –
18 | [1-Nal21]ShK (peptide) | 0.669 | 8.13 | 6.59 | –
19 | [1-Nal19]ShK (peptide) | 0.277 | 0.255 | 0.153 | Kv1.1 (IWQ) IC50 (human Kv1.1 [2]): 0.001 nM
20 | [1-Nal31]ShK (peptide) | – | – | – | Kv1.1 (IWQ) IC50 (human Kv1.1 [2]): 0.004 nM

Row | Molecule | Kv1.3 (IWQ) IC50 (human Kv1.3 [1]) [nM] | WB (IFNg) IC50 (human Kv1.3 [1]) [nM] | WB (IL-2) IC50 (human Kv1.3 [1]) [nM] | further results
21 | 20kDaPEG-[1-Nal16]ShK (peptide) | 39.1 | 100 | 100 | –
22 | Fc.L20.FcLoop(ShK) (Fc fusion) | – | – | – | In vitro whole blood assay (inhibition of IL-2) IC50 (human Kv1.3 [1]): 2.01 nM
23 | 20 kDa PEG-ShK (peptide) | 1.21 | 0.855 | 0.387 | Kv1.3 IC50 (whole cell patch clamp) (human Kv1.3 [3]): 0.299 nM; WB (IFNg) IC50 (human Kv1.3 [3]): 0.84 nM; WB (IL-2) IC50 (human Kv1.3 [3]): 0.38 nM; Kv1.1 IC50 (whole cell patch clamp) (human Kv1.1 [4]): 1.63 nM; Kv1.1 (IWQ) IC50 (human Kv1.1 [2]): 0.11 nM
24 | [1-Nal25]ShK (peptide) | 0.106 | 0.084 | 0.061 | –
25 | [1-Nal26]ShK (peptide) | 0.352 | 0.573 | 0.357 | –
26 | [1-Nal29]ShK (peptide) | – | 8.08 | 4.72 | –
27 | [1-Nal27]ShK (peptide) | 0.144 | 2.84 | 1.07 | –
28 | [Dab16]ShK (peptide) | 0.082 | – | 0.086 | –
29 | [1-Nal7]ShK (peptide) | 0.699 | 18 | 11.6 | –
30 | [1-Nal23]ShK (peptide) | 3.3 | 100 | 100 | Kv1.1 (IWQ) IC50 (human Kv1.1 [2]): 3.3 nM
31 | 30kPEG-[Lys16]ShK (peptide) | 0.454 | – | – | Kv1.3 (PX) IC50 (human Kv1.3 [3]): 1.2 nM; WB (IFNg) IC50 (human Kv1.3 [3]): 0.491 nM; WB (IL-2) IC50 (human Kv1.3 [3]): 0.282 nM; Kv1.1 (PX) IC50 (human Kv1.1 [4]): 1070 nM; Kv1.1 (IWQ) IC50 (human Kv1.1 [2]): 33.3 nM
32 | 30kDaPEG-ShK (peptide) | 1.93 | 2.42 | 0.372 | Kv1.1 (IWQ) IC50 (human Kv1.1 [2]): 0.182 nM
33 | [1-Nal6]ShK (peptide) | 0.15 | 0.962 | 0.86 | –
34 | CC[C@H](C)[C@@H]1NC(=O)[C@@H](NC(=O)[C@H](CO)NC(=O)[C@@H](N)CCCNC(=N)N)CSSC[C@@H](C(N)=O)NC(=O)[C@H]([C@@H](C)O)NC(=O)CNC(=O)[C@@H]2CSSC[C@@H]3NC(=O)[C@H](CCCCN)NC(=O)[C@H](Cc4ccccc4)NC(=O)[C@H](C)NC(=O)[C@H]([C@@H](C)O)NC(=O)[C@H](CSSC[C@H](NC(=O)[C@H](Cc4ccccc4)NC(=O)[C@H](CO)NC(=O)[C@H](CC(C)C)NC(=O)[C@H](CCCNC(=N)N)NC(=O)[C@H](Cc4ccc(O)cc4)NC(=O)[C@H](CCCCN)NC(=O)[C@H](CC4CCCCC4)NC(=O)[C@H](CO)NC(=O)[C@H](Cc4c[nH]cn4)NC(=O)[C@H](CCCCN)NC3=O)C(=O)N[C@@H](CCCNC(=N)N)C(=O)N[C@@H](CCCCN)C(=O)N[C@@H]([C@@H](C)O)C(=O)N2)NC(=O)[C@H](CCCNC(=N)N)NC(=O)[C@H](CO)NC(=O)[C@H](CCCCN)NC(=O)[C@@H]2CCCN2C(=O)[C@H]([C@@H](C)CC)NC(=O)[C@H]([C@@H](C)O)NC(=O)[C@H](CC(=O)O)NC1=O [[Lys16, Cha21]ShK-amide] | – | – | – | IC50 [5]: 1.74 nM; IC50 [6, 7]: 1.32 nM; IC50 (hKv1.3): 0.499 nM
35 | CC[C@H](C)[C@@H]1NC(=O)[C@@H](NC(=O)[C@H](CO)NC(=O)[C@@H](N)CCCNC(=N)N)CSSC[C@@H](C(=O)O)NC(=O)[C@H]([C@@H](C)O)NC(=O)CNC(=O)[C@@H]2CSSC[C@@H]3NC(=O)[C@H](CCC(N)=O)NC(=O)[C@H](Cc4ccccc4)NC(=O)[C@H](C)NC(=O)[C@H]([C@@H](C)O)NC(=O)[C@H](CSSC[C@H](NC(=O)[C@H](Cc4ccccc4)NC(=O)[C@H](CO)NC(=O)[C@H](CC(C)C)NC(=O)[C@H](CCCNC(=N)N)NC(=O)[C@H](Cc4ccc(O)cc4)NC(=O)[C@H](CCCCN)NC(=O)[C@H](CCSC)NC(=O)[C@H](CO)NC(=O)[C@H](Cc4c[nH]cn4)NC(=O)[C@H](CCC(=O)O)NC3=O)C(=O)N[C@@H](CCCNC(=N)N)C(=O)N[C@@H](CCCCN)C(=O)N[C@@H]([C@@H](C)O)C(=O)N2)NC(=O)[C@H](CCCNC(=N)N)NC(=O)[C@H](CO)NC(=O)[C@H](CCCCN)NC(=O)[C@@H]2CCCN2C(=O)[C@H]([C@@H](C)CC)NC(=O)[C@H]([C@@H](C)O)NC(=O)[C@H](CC(=O)O)NC1=O [[Glu18]ShK] | – | – | – | IC50 [5]: 0.047 nM; IC50 [6, 8]: 0.083 nM; IC50 (hKv1.3): 0.117 nM
36 | CCC[C@@H]1NC(=O)[C@H](CO)NC(=O)[C@H](Cc2c[nH]cn2)NC(=O)[C@H](CCCCN)NC(=O)[C@@H]2CSSC[C@@H]3NC(=O)[C@H]([C@@H](C)O)NC(=O)[C@H](CCCCN)NC(=O)[C@H](CCCNC(=N)N)NC(=O)[C@H](CSSC[C@H](NC(=O)[C@H](CCCNC(=N)N)NC(=O)[C@H](CO)NC(=O)[C@H](CCCCN)NC(=O)[C@@H]4CCCN4C(=O)[C@H]([C@@H](C)CC)NC(=O)[C@H]([C@@H](C)O)NC(=O)[C@H](CC(=O)O)NC(=O)[C@H]([C@@H](C)CC)NC(=O)[C@@H](NC(=O)[C@H](CO)NC(=O)[C@@H](N)CCCNC(=N)N)CSSC[C@@H](C(=O)N[C@@H](CCC(=O)O)C(N)=O)NC(=O)[C@H]([C@@H](C)O)NC(=O)CNC3=O)C(=O)N[C@@H]([C@@H](C)O)C(=O)N[C@@H](C)C(=O)N[C@@H](Cc3ccccc3)C(=O)N[C@@H](CCCCN)C(=O)N2)NC(=O)[C@H](Cc2ccccc2)NC(=O)[C@H](CO)NC(=O)[C@H](CC(C)C)NC(=O)[C@H](CCCNC(=N)N)NC(=O)[C@H](Cc2ccc(O)cc2)NC(=O)[C@H](CCCCN)NC1=O [[Lys16, Nva21]ShK-Glu-amide] | – | – | – | IC50 [5]: 0.218 nM; IC50 [6, 7]: 0.353 nM; IC50 (hKv1.3): 0.21 nM
37 | CC[C@H](C)[C@@H]1NC(=O)[C@@H](NC(=O)[C@H](CO)NC(=O)[C@@H](N)CCCNC(=N)N)CSSC[C@@H](C(=O)O)NC(=O)[C@H]([C@@H](C)O)NC(=O)CNC(=O)[C@@H]2CSSC[C@@H]3NC(=O)[C@H](CCC(N)=O)NC(=O)[C@H](Cc4ccccc4)NC(=O)[C@H](C)NC(=O)[C@H]([C@@H](C)O)NC(=O)[C@H](CSSC[C@H](NC(=O)[C@H](Cc4ccccc4)NC(=O)[C@H](CO)NC(=O)[C@H](CC(C)C)NC(=O)[C@H](CCCNC(=N)N)NC(=O)[C@H](Cc4ccc(O)cc4)NC(=O)[C@H](CCCCN)NC(=O)[C@H](CCSC)NC(=O)[C@H](CO)NC(=O)[C@H](Cc4c[nH]cn4)NC(=O)[C@H](CCCCN)NC3=O)C(=O)N[C@@H](CCCNC(=N)N)C(=O)N[C@@H](CCCCN)C(=O)N[C@@H]([C@@H](C)O)C(=O)N2)NC(=O)[C@H](CCCNC(=N)N)NC(=O)[C@H](CO)NC(=O)[C@H](CCC(=O)O)NC(=O)[C@@H]2CCCN2C(=O)[C@H]([C@@H](C)CC)NC(=O)[C@H]([C@@H](C)O)NC(=O)[C@H](CC(=O)O)NC1=O [[Glu9]ShK] | – | – | – | IC50 [5]: 0.036 nM; IC50 [6, 8]: 0.056 nM; IC50 (hKv1.3): 0.128 nM
38 | B1 | – | – | – | Kv1.3 IC50 (whole cell patch clamp) (human Kv1.3 [3]): 0.015 nM; WB (IFNg) IC50 (human Kv1.3 [3]): 0.32 nM; WB (IL-2) IC50 (human Kv1.3 [3]): 0.386 nM; Kv1.1 IC50 (whole cell patch clamp) (human Kv1.1 [4]): 0.067 nM
39 | B2 | – | – | – | Kv1.3 IC50 (whole cell patch clamp) (human Kv1.3 [3]): 0.116 nM; WB (IFNg) IC50 (human Kv1.3 [3]): 2.29 nM; WB (IL-2) IC50 (human Kv1.3 [3]): 0.585 nM; Kv1.1 IC50 (whole cell patch clamp) (human Kv1.1 [4]): 0.411 nM
